Results reported in US20160264664A1 (Ablynx, published 2016).
Residue numbers refer to the chain shown, from its start.

B1: P2X7PMP14D5 (VHH)
VHH: KVQLVESGGGLVQAGGSLRLSCAASGSPISSYAMGWYRQAPGKPRELVARIYTGGTAWYEDSVKGRFTISRDNAQNTVYLQMNSLKSEDTAVYYCHGRVRYDYWGQGTQVTVSS
notes: family 17; on phage or c-myc/His6-tagged in assays
B2: P2X7PMP8G12 (VHH)
VHH: KVQLVESGGGLVQAGGSLRLSCAASGSFFRVNNMAWYRQGPGKQRELVADITRGDRTNYADSVNGRFTISRDNVRNTVYLQMNGLKPEDTAVYYCYATIELGVLEPRDYWGQGTQVTVSS
notes: family 5, 3; on phage or c-myc/His6-tagged in assays; also called 8012
B3: P2X7PMP8G11 (VHH)
VHH: B2 VHH with K1A, S27N, N33T, G40A, S62T, K86R, V92A, T98V
notes: family 5, 1; on phage or c-myc/His6-tagged in assays; also called 8011
B4: P2X7PMP7H6 (VHH)
VHH: EVQLVESGGGLVQPGGSLRLSCVVSGSMYRIDNMGWYRQAPGKQRELVATVTRGDITNYADSVKGRFTIGRDNAKNTVYLQMNSLKPADTAVYYCNIDSYIIGAGVRDYWGRGTQVTVSS
notes: family 11; on phage or c-myc/His6-tagged in assays
B5: P2X7PMP7E2 (VHH)
VHH: EVQLVESGGGLVQAGGSLRLSCAAPERTYSMGWFRQAPGKEREFVAGSGWDGIPTRYADSVKGRFTISRDNAKNTVSLQMSGLKPEDTAIYYCATGTSVYHYQYWGQGTQVTVSS
notes: family 3; on phage or c-myc/His6-tagged in assays
B6: P2X7PMP6B7 (VHH)
VHH: EVQLVESGGGLVQAGGSLRLSCVVSGRTFSAMGWFRQAPGKEREFVATVGWNPMNSYYGDSVKGRFTIFRDNAKNTVYLQMNSLKPEDTAVYYCAGSGSLLDVTSEAVYTDWGQGTQVTVSS
notes: family 16; on phage or c-myc/His6-tagged in assays
B7: P2X7PMP13F6 (VHH)
VHH: EVQLVESGGGLVQPGGSLRLSCAASGFTFSTNIMTWVRQAPGKGLEWISTINSGGGTTTYADSVRGRFTISRDNAKNMLYLQMSSLKPEDTALYYCITPRGVKGRGTQVTVSS
notes: family 20; on phage or c-myc/His6-tagged in assays
B8: P2X7PMP7D5 (VHH)
VHH: EVQLVESGGGLVQAGDSLRLSCAASGRTFSSVAVGWFRQAPGKERDFVAWISWSGDSTYYADSVKGRFTASRDNVNNTVYLQMNSLKPEDTADYYCAAAWKYDRASYDFPEAYDYWGQGTQVTVSS
notes: family 14; on phage or c-myc/His6-tagged in assays
B9: P2X7PMP2C4 (VHH)
VHH: EVQLVESGGDVVQAGGSLRLSCLASGFTFDDYAIGWFRQAPGKEREGISCISSTGNVFYADSVKGRFTISSDKEKNTLYLQMNSLKPEDTAVYHCAAGHFTVDSGKVLLRTDISSWGQGTQVTVSS
notes: family 1; on phage or c-myc/His6-tagged in assays
B10: P2X7PMP20A11 (VHH)
VHH: EVQLVESGGRVMQTGGSLRLSCAASGHTFNDYNMGWFRQAPGKELEFLAGINWSGMSTWYADSVKDRFTISRDNNKNTVFLQMNSLEPGDTAVYYCAARQWISTIILTAPSQYDYWGQGTQVTVSS
notes: family 24; on phage or c-myc/His6-tagged in assays

Biological target: T1, mouse P2X7 (mouse, UniProt Q9Z1M0 1-595)
T1 sequence: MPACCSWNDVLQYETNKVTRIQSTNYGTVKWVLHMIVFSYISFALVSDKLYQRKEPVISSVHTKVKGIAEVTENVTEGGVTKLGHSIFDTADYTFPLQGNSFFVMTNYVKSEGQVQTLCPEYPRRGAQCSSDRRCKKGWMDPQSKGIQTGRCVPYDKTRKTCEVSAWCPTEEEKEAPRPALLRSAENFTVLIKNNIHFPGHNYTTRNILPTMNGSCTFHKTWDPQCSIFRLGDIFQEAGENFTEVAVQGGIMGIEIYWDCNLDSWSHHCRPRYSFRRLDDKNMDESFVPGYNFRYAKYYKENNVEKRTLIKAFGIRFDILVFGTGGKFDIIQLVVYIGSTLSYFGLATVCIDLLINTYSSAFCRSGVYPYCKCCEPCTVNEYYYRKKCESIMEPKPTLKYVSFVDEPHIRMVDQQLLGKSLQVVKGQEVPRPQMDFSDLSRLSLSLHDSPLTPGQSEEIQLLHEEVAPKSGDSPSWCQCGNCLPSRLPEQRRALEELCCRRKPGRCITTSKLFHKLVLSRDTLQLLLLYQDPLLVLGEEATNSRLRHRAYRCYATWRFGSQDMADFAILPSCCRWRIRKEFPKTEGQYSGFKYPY
Assay: cell-based or functional assay

| Binder | EC50, enhancement of CD62L-ectodomain shedding at 1.5 µM NAD [nM] | EC50, enhancement of CD62L-ectodomain shedding at 33 µM ATP [nM] |
| --- | --- | --- |
| B1 | 4.1 | 22.6 |

Biological target: T1, mouse P2X7
Assay: cell-based or functional assay
Remark: another data set of the same source

| Binder | ATP IC50 by 2 uM NB (head prints 'mM'; ligand titration at fixed Nanobody, CD62L shedding, Yac-1 cells) [mM] | IC50 (nM) against 20 uM NAD (CD62L shedding, Yac-1 cells) [nM] | IC50 (nM) against 100 uM ATP (CD62L shedding, Yac-1 cells) [nM] |
| --- | --- | --- | --- |
| B2 | 0.29 | 82 | 55 |
| B3 | 0.389 | 68 | 37 |
| B4 | 0.494 | 208 | 123 |
| B1 | 0.016 |  |  |

Biological target: T1, mouse P2X7
Assay: cell-based or functional assay
Remark: another data set of the same source

| Binder | IC50 (read off the curve) [nM] |
| --- | --- |
| B3 | ~60 |

Biological target: T1, mouse P2X7
Assay: cell-based or functional assay
Remark: another data set of the same source

| Binder | IC50 (read off the curve) [nM] |
| --- | --- |
| B3 | ~20 |

Biological target: T1, mouse P2X7
Assay: phage ELISA, mP2X7-CHO vs control CHO cells
Protocol: (§1) Sub-confluent cells were rinsed with PBS and fixed using 4% paraformaldehyde in PBS for 10 minutes at RT. Fixed cells were washed three times with PBS, and blocked with 2% BSA in PBS for 2 hours. Following blocking, 10-fold diluted culture supernatant containing phage was added and incubated for 1 hour. Cell-bound phage was detected via mouse anti-M13-HRP-conjugate (GE Healthcare, Cat nr. E2886). Rat mAb Hano43 was used as positive control.

| Binder | absorption ratio (ELISA) [ratio] |
| --- | --- |
| B2 | 36 |
| B3 | 26 |

Biological target: T2, human P2X7 (human, UniProt Q99572 1-595)
T2 construct: on transfected Hek293 cells; also called hP2X7
T2 sequence: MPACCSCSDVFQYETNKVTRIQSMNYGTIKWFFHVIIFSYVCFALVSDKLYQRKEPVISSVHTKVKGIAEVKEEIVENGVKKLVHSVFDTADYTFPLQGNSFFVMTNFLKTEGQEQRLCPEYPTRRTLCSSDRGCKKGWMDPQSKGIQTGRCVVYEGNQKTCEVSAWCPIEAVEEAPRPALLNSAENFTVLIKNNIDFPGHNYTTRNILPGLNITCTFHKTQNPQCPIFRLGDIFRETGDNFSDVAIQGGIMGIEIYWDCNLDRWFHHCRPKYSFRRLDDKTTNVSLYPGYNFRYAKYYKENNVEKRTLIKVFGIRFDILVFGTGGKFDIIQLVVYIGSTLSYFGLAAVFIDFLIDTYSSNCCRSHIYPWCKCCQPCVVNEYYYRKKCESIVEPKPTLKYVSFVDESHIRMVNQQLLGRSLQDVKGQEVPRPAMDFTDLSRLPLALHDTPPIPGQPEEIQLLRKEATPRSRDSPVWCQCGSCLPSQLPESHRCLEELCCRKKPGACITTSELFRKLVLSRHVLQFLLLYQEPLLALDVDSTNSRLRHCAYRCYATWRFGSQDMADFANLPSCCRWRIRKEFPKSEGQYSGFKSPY
Assay: flow cytometry, Nanobody pre-incubated with anti-Myc-FITC

| Binder | binding result |
| --- | --- |
| B5 | no binding (tested: 147 nM) |
| B2 | no binding (tested: 147 nM) |
| B6 | no binding (tested: 147 nM) |
| B7 | no binding (tested: 147 nM) |
| B4 | no binding (tested: 147 nM) |
| B8 | no binding (tested: 147 nM) |
| B9 | no binding (tested: 147 nM) |
| B10 | no binding (tested: 147 nM) |

Biological target: T3, human P2X4 (human, UniProt Q99571 1-388)
T3 construct: whole, on cells; also called hP2X4
T3 sequence (looked up): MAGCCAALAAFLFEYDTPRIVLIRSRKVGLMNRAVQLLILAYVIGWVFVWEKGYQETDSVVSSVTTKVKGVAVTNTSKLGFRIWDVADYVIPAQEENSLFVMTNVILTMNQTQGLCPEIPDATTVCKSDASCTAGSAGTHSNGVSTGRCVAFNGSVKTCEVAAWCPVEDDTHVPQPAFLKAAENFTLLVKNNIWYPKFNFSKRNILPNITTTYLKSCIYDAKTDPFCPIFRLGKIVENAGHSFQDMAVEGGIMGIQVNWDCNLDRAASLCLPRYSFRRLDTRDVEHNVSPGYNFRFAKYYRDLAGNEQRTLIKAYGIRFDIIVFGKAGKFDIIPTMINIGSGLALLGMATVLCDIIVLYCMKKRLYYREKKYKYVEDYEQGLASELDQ
Assay: as above

| Binder | binding result |
| --- | --- |
| B5 | no binding (tested: 147 nM) |
| B2 | no binding (tested: 147 nM) |
| B3 | no binding (tested: 147 nM) |
| B6 | no binding (tested: 147 nM) |
| B7 | no binding (tested: 147 nM) |
| B4 | no binding (tested: 147 nM) |
| B8 | no binding (tested: 147 nM) |
| B9 | no binding (tested: 147 nM) |
| B10 | no binding (tested: 147 nM) |
| B1 | no binding (tested: 147 nM) |

Biological target: T1, mouse P2X7
Assay: flow cytometry, purified Nanobody titrated on mP2X7-CHO cells

| Binder | EC50 [nM] |
| --- | --- |
| B5 | 4.3 |
| B8 | 3 |

Biological target: T1, mouse P2X7
Assay: phage ELISA on fixed mP2X7-CHO vs untransfected CHO cells;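 further: phage culture supernatant diluted 10-fold, applied for 1 h to paraformaldehyde-fixed, BSA-blocked cells in 96-well plates, with bound phage read via HRP-linked anti-M13 antibody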
Protocol: as §1

| Binder | Fold Cho P2X7/wt (phage ELISA) [fold] |
| --- | --- |
| B5 | 25 |
| B2 | 36 |
| B3 | 26 |
| B6 | 24 |
| B4 | 23 |
| B8 | 14 |
| B1 | 8 |

Biological target: T1, mouse P2X7
Assay: flow cytometry, periplasmic extract pre-incubated with anti-myc-FITC, on mP2X7-Hek293 cells;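 further: periplasmic extract diluted 10-fold and premixed 45 min at 4 °C with FITC anti-myc antibody, giving pseudo-bivalent Nanobodies, before binding to the cells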
Protocol: Ten-fold diluted PE were pre-incubation with 0.5 μg anti-myc FITC-conjugated antibodies (AbD Serotec, cat no. MCA2200F) (creating pseudo-bivalent Nanobodies in order to increase binding strength) in 0.1 ml PBS/10% FCS for 45 minutes at 4° C. […] Alternatively, sequential staining of 10-fold diluted PE with anti-myc FITC-conjugated antibodies was done after incubation with the cells.

| Binder | MFI FACS (pre-Myc incubation) [MFI] |
| --- | --- |
| B2 | 166 |
| B3 | 166 |

Biological target: T4, mouse P2X7 mutant R151A (mouse, UniProt Q9Z1M0 1-595)
T4 construct: transiently transfected Hek293 cells
T4 sequence: T1 sequence with R151A
Assay: flow cytometry, 1 µM Nanobody on transiently transfected Hek293 cells, normalised to Hano43 staining
Protocol: For flow cytometric assays, detection of Nanobodies was performed via anti-Myc and subsequent goat anti-mouse-PE conjugate, while an estimation of P2X7 expression densities was obtained via staining with rat monoclonal Hano43 followed by secondary anti-rat-PE conjugate.

| Binder | reduction of binding against WT mP2X7 [%] |
| --- | --- |
| B5 | > 90 |
| B2 | > 90 |
| B3 | > 90 |
| B6 | > 90 |
| B4 | > 90 |
| B8 | > 90 |

Biological target: T1, mouse P2X7
Assay: phage ELISA on fixed mP2X7-CHO vs untransfected CHO cells; phage ELISA, phage-displayed Nanobody, Cho P2X7 vs wt signal ratio
Protocol: as §1

| Binder | Fold Cho P2X7/wt (phage ELISA) [fold] |
| --- | --- |
| B7 | 20 |
| B9 | 4 |
| B10 | 11 |
